Experimental data reported in patent US20240132603A1 (HARBOUR BIOMED US, published 2024).
Like-named read-outs stand apart in the source and are kept apart here.

Key:
[1] = biological target: T1, cynomolgus monkey CCR8 (cynomolgus monkey, UniProt G7NYJ2 1-355); experiment: FACS, CHO-K1-CynoCCR8 cells
T1 construct: whole, on cells; also called CynoCCR8
Protocol: (§1) Cells overexpressing cynomolgus monkey CCR8, CHO-K1-CynoCCR8, were digested with pancreatin, counted and resuspended to a cell density of 1E6 cells/mL. The cell suspension was added to a 96-well V-bottom plate at 100 μL/well and centrifuged at 300 g for 5 min, and the supernatant was discarded. The anti-CCR8 antibodies provided herein was used as a primary antibody and diluted in a 5-fold gradient with an FACS buffer (DPBS containing 2% FBS) from 200 nM. The diluted primary antibody was added at 100 μL/well to resuspend the cells, and the mixture was incubated at 4° C. for 1 h. The plate was washed twice with DPBS and centrifuged at 300×g for 5 min, and the supernatant was discarded. The secondary antibody diluted in a 1:1000 ratio with an FACS buffer was added at 100 μL/well to suspend the cells, and the mixture was incubated at 4° C. for 40 min. The plate was washed twice with DPBS and centrifuged at 300×g for 5 min, and the supernatant was discarded. DPBS was added at 200 μL/well to suspend the cells, and the mixture was loaded on an FACS machine for analysis.

[2] = biological target: T2, human CCR8 (human, UniProt P51685 1-355); experiment: FACS, CHO-K1-hCCR8 cells
T2 construct: whole, on cells; construct used for the overexpressing cell lines is not described; also called hCCR8
Protocol: as §1, with “human CCR8” for “cynomolgus monkey CCR8, CHO-K1-CynoCCR8,”

[3] = biological target: T2, human CCR8; experiment: FACS, CHO-K1-hCCR8 cells; remark: listed apart in the source
Protocol: as §1, with “human CCR8” for “cynomolgus monkey CCR8, CHO-K1-CynoCCR8,”

[4] = biological target: T1, cynomolgus monkey CCR8; experiment: FACS, CHO-K1-CynoCCR8 cells; remark: listed apart in the source
Protocol: as §1

[5] = biological target: T2, human CCR8; experiment: FACS, Baf3-hCCR8 cells
Protocol: as §1, with “human CCR8” for “cynomolgus monkey CCR8, CHO-K1-CynoCCR8,”

[6] = biological target: T2, human CCR8; experiment: FACS, HEK293-hCCR8 cells
Protocol: as §1, with “human CCR8” for “cynomolgus monkey CCR8, CHO-K1-CynoCCR8,”

T1 sequence (G7NYJ2 entry or part of it): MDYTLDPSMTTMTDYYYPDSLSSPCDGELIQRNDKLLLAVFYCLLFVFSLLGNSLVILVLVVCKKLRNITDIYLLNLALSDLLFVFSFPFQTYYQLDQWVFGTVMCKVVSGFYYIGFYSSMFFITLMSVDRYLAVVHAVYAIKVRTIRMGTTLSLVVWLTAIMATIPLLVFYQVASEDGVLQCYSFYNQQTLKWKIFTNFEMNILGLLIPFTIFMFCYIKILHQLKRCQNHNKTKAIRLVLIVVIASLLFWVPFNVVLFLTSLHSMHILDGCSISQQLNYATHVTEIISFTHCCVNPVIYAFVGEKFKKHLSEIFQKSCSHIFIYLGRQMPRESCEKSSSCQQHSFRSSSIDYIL
T2 sequence (P51685 whole entry): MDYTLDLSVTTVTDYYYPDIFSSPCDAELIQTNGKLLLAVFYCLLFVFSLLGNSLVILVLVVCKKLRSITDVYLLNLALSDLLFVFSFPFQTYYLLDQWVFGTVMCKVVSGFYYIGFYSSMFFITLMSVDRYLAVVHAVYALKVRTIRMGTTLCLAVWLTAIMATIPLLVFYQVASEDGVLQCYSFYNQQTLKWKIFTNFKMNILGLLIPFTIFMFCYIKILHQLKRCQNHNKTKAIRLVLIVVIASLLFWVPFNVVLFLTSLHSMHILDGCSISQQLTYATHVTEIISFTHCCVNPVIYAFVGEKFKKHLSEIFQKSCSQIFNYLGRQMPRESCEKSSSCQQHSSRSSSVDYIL

B1: PR004519 (antibody, human IgG1, kappa, V domains shown)
VH: EVQLVESGGGLVKPGGSLRLSCAASGFTFNTYAMNWVRQAPGKGLEWVGRIRSKSNNYATYYADSVKDRFTISRDDSKSTLYLQMNSLKTEDTAVYYCVRGKENGNYYAMDFWGQGTTVTVSS
VL: DIVMTQSPLSLPVTPGEPASISCRSSKSLLHSNGKIYLYWFLQKPGQSPQLLIYRMSNLASGVPDRFSGSGSGTDFTLKISRVEAEDVGVYYCMQHLEYPLTFGQGTKLEIKR
notes: humanized variant of PR004128, IgG1 with DE mutation
Q: What does the source list for B1?
A: EC50 [1]: 4.17 nM; EC50 [2]: 0.67 nM

B2: PR004520 (antibody, human IgG1, kappa)
heavy: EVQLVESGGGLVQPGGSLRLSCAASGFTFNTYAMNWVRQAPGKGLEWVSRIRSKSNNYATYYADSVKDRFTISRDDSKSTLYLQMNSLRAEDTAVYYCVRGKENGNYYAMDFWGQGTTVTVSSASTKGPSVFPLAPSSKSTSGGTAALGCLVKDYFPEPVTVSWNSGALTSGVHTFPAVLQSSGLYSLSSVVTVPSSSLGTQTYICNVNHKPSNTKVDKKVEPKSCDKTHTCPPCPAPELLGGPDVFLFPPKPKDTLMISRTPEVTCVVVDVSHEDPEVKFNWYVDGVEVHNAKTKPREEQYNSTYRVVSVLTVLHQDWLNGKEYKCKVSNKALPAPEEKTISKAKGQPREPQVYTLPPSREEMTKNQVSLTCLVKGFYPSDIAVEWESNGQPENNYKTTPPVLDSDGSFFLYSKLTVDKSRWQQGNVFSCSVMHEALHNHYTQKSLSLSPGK
light: DIVMTQSPLSLPVTPGEPASISCRSSKSLLHSNGKIYLYWFLQKPGQSPQLLIYRMSNLASGVPDRFSGSGSGTDFTLKISRVEAEDVGVYYCMQHLEYPLTFGQGTKLEIKRTVAAPSVFIFPPSDEQLKSGTASVVCLLNNFYPREAKVQWKVDNALQSGNSQESVTEQDSKDSTYSLSSTLTLSKADYEKHKVYACEVTHQGLSSPVTKSFNRGEC
notes: as for B1
Q: With B2 as the binder, how does the EC50 [1] read?
A: 4.6 nM

Q: And the EC50 [2]?
A: 1.31 nM

B3: PR006156 (antibody, human IgG1, kappa, V domains shown)
VH: EVQLVESGGGLVKPGGSLRLSCAASGFTFSTYAMNWVRQAPGKGLEWVGRIRSKSNNYATYYADSVKDRFTISRDDSKSTLYLQMNSLKTEDTAVYYCVRGKEIGNYYAMDFWGQGTTVTVSS
VL: DIVMTQSPLSLPVTLGQPASISCRSSKSLLHSNAKIYLYWFQQRPGQSPRLLIYRMSNLASGVPDRFSGSGSGTDFTLKISRVEAEDVGVYYCMQHLEYPLTFGQGTKLEIKR
Q: How did the EC50 [3] turn out when B3 was run?
A: 0.38 nM

Q: What about the EC50 [4] of the same binder?
A: 0.3 nM

B4: PR004669 (antibody, human IgG1, kappa)
heavy: not shown
light: DIVMTQSPLSLPVTLGQPASISCRSSKSLLHSNGKIYLYWFQQRPGQSPRLLIYRMSNLASGVPDRFSGSGSGTDFTLKISRVEAEDVGVYYCMQHLEYPLTFGQGTKLEIKRTVAAPSVFIFPPSDEQLKSGTASVVCLLNNFYPREAKVQWKVDNALQSGNSQESVTEQDSKDSTYSLSSTLTLSKADYEKHKVYACEVTHQGLSSPVTKSFNRGEC
notes: humanized; same VH/VL as PR004525, other heavy chain entry
Q: Which EC50 [3] does the source give for B4 here?
A: 0.72 nM

Q: What about the EC50 [1] of the same binder?
A: 1.61 nM

B5: PR004523 (antibody, human IgG1, kappa, V domains shown)
VH: EVQLVESGGGLVQPGGSLRLSCAASGFTFNTYAMNWVRQAPGKGLEWVSRIRSKSNNYATYYADSVKDRFTISRDDSKSTLYLQMNSLRAEDTAVYYCVRGKENGNYYAMDFWGQGTTVTVSS
VL: DIVMTQSPLSLPVTPGEPASISCRSSKSLLHSNGNTYLYWFLQKPGQSPQLLIYRMSNLASGVPDRFSGSGSGTDFTLKISRVEAEDVGVYYCMQHLEYPLTFGQGTKLEIKR
notes: as for B1
Q: B5 was tested. Which EC50 [1] did it give?
A: 4.42 nM

Q: What about the EC50 [2] of the same binder?
A: 1 nM

B6: PR004521 (antibody, human IgG1, kappa, V domains shown)
VH: EVQLVESGGGLVQPGGSLKLSCAASGFTFNTYAMNWVRQASGKGLEWVGRIRSKSNNYATYYADSVKDRFTISRDDSKSTLYLQMNSLKTEDTAVYYCVRGKENGNYYAMDFWGQGTTVTVSS
VL: DIVMTQSPLSLPVTPGEPASISCRSSKSLLHSNGKIYLYWFLQKPGQSPQLLIYRMSNLASGVPDRFSGSGSGTDFTLKISRVEAEDVGVYYCMQHLEYPLTFGQGTKLEIKR
notes: as for B1
Q: Which results are given for B6?
A: EC50 [1]: 6.22 nM; EC50 [2]: 0.37 nM

B7: PR004522 (antibody, human IgG1, kappa, V domains shown)
VH: EVQLVESGGGLVKPGGSLRLSCAASGFTFNTYAMNWVRQAPGKGLEWVGRIRSKSNNYATYYADSVKDRFTISRDDSKSTLYLQMNSLKTEDTAVYYCVRGKENGNYYAMDFWGQGTTVTVSS
VL: DIVMTQSPLSLPVTPGEPASISCRSSKSLLHSNGNTYLYWFLQKPGQSPQLLIYRMSNLASGVPDRFSGSGSGTDFTLKISRVEAEDVGVYYCMQHLEYPLTFGQGTKLEIKR
notes: as for B1
Q: For B7, which EC50 [1] is on record?
A: 5.87 nM

Q: What about the EC50 [2] of the same binder?
A: 1.08 nM

B8: PR006161 (antibody, human IgG1, kappa, V domains shown)
VH: EVQLVESGGGLVKPGGSLRLSCAASGFTFSTYAMNWVRQAPGKGLEWVGRIRSKSNYYATYYADSVKDRFTISRDDSKSTLYLQMNSLKTEDTAVYYCVRGKEHGKYYAMDFWGQGTTVTVSS
VL: DIVMTQSPLSLPVTLGQPASISCRSSKSLLHSNAKIYLYWFQQRPGQSPRLLIYRMSNLASGVPDRFSGSGSGTDFTLKISRVEAEDVGVYYCMQHLEYPLTFGQGTKLEIKR
Q: B8 was tested. Which EC50 [3] did it give?
A: 0.38 nM

Q: And the EC50 [4]?
A: 0.43 nM

B9: PR006157 (antibody, human IgG1, kappa, V domains shown)
VH: EVQLVESGGGLVKPGGSLRLSCAASGFTFSTYAMNWVRQAPGKGLEWVGRIRSKSNYYATYYADSVKDRFTISRDDSKSTLYLQMNSLKTEDTAVYYCVRGKEIGNYYAMDFWGQGTTVTVSS
VL: DIVMTQSPLSLPVTLGQPASISCRSSKSLLHSNAKIYLYWFQQRPGQSPRLLIYRMSNLASGVPDRFSGSGSGTDFTLKISRVEAEDVGVYYCMQHLEYPLTFGQGTKLEIKR
Q: What does the source list for B9?
A: EC50 [3]: 0.73 nM; EC50 [4]: 0.42 nM

B10: PR004120 (antibody, human IgG1, kappa, V domains shown)
VH: EVQLVESGGGLVQPKGSLKLSCAASGFTFNTNAMNWVRQAPGKGLEWVARIRSKMNNYATYYADSVKDRFTISRDDSQNMLYLQMNNLKTEDTAMYYCVRGKENGNYYAMDFWGQGTSVTVSA
VL: DIVMTQAATSVLVTPGESVSISCRSSKSLLYSNGNTYLYWFLQRPGQSPQLLIYRMSNLASGVPDRFSGSGSGTAFTLRISRVEAEDVGVYYCMQHLEYPFTFGGGTKLEIKR
notes: chimeric, human IgG1 constant region
Q: With B10 as the binder, how does the EC50 [5] read?
A: 0.24 nM

Q: And the EC50 [6]?
A: 1.1 nM

Q: What about the EC50 [3] of the same binder?
A: 0.54 nM

B11: PR004124 (antibody, human IgG1, kappa, V domains shown)
VH: EVKVEESGGGLVQPGGSMKLSCAASGFTFNTYAMNWVRQAPGKGLEWVARIRSKSNNYATYYADSVKDRFTISRDDSQSMLYLQMNNLKTEDTAMYYCVRGKDYGNYYAMDFWGQGTSLTVSS
VL: DIVMTQDELSNPVTSGESVSISCRSSKSLLHSNGNTYLYWFLQRPGQSPQLLIYRMSNLASGVPDRFSGSGSGTAFTLRISRVEAEDVGVYYCMQHLEYPFTFGGGTKLELKR
notes: as for B10
Q: What does the source list for B11?
A: EC50 [5]: 0.17 nM; EC50 [6]: 0.58 nM; EC50 [3]: 0.45 nM

B12: PR004129 (antibody, human IgG1, kappa, V domains shown)
VH: EVQLVESGGGLVQPKGSLKLSCAASGFTFNTYAMNWVRQAPGKGLEWVARIRSKSNNYATYYADSVKDRFTISRDDSQSMLYLQMNNLKTEDTAMYYCVRGKDYGNYYAMDYWGQGTSVTVSS
VL: DILLTQSPAILSVSPGERVSFSCRSSKSLLHSNGNTYLYWFLQRPGQSPQLLIYRMSNLASGVPDRFSGSGSGTAFTLRISRVEAEDVGVYYCMQHLEYPFTFGSGTKLEINR
notes: as for B10
Q: How did the EC50 [5] turn out when B12 was run?
A: 0.06 nM

Q: And the EC50 [6]?
A: 0.34 nM

Q: And the EC50 [3]?
A: 0.25 nM

B13: PR004127 (antibody, human IgG1, kappa, V domains shown)
VH: EVQLVETGGGLVQPKGSLKLSCAASGFTFNTNAMNWVRQAPGKGLEWVARIRSKSNNYATYYADSVKDRFTISRDDSQNMLYLQMNNLKTEDTAMYYCVRGKENGNYYAMDFWGQGTSVTVSS
VL: DIVMTQAATSVLVTPGESVSISCRSSKSLLYSNGNTYLYWFLQRPGQSPQLLIYRMSNLASGVPDRFSGSGSGTAFTLRISRVEAEDVGVYYCMQHLEYPFTFGGGTKLEMKR
notes: as for B10
Q: B13 was tested. Which EC50 [5] did it give?
A: 0.26 nM

Q: What about the EC50 [6] of the same binder?
A: 0.86 nM

Q: And the EC50 [3]?
A: 0.56 nM

B14: PR004123 (antibody, human IgG1, kappa, V domains shown)
VH: EVQLVESGGGLVQPKGSLKLSCAASEFTFNTYAMNWVRQAPGKGLEWVARIRTKSNNFATYYADSVKDRFTISRDDSQSMLFLQMNNLKTEDTAMYYCVRGKENGNYYAMDFWGQGTSVTVSA
VL: DIVMTQAAPSVPVTPGESVSISCRSSKSLLHSNGNTYLYWFLQRPGQSPQLLIYRMSNLASGVPDRFSGSGSGTAFTLRISRVEAEDVGVYYCMQHLEYPFTFGGGTKLELKR
notes: as for B10
Q: B14 was tested. Which EC50 [5] did it give?
A: 0.2 nM

Q: And the EC50 [6]?
A: 0.62 nM

Q: What about the EC50 [3] of the same binder?
A: 0.46 nM

B15: PR004130 (antibody, human IgG1, kappa, V domains shown)
VH: EVQLVESGGGLVQFKGSLKLSCGTSGFTFNTYAMNWVRQAPGKGLEWVARIRSKSNNYATFYADSVKDRFTISRDDSQNMLYLQMNNLKTEDTAMYYCVRGKENGNYYAMDFWGQGTSVTVSS
VL: DIVMTQAAPSVPVTPGESVSISCRSSKSLLHSNGNTYLYWFLQRPGQSPQLLIYRMSNLASGVPDRFSGSGSGTAFTLRISRVEAEDVGVYYCMQHLEYPFTFGSGTKLEIKR
notes: as for B10
Q: What does the source list for B15?
A: EC50 [5]: 0.2 nM; EC50 [6]: 0.8 nM; EC50 [3]: 0.46 nM

B16: PR004126 (antibody, human IgG1, kappa, V domains shown)
VH: EVQLVESGGGLVQPKGSLKLSCAASGFTFSTNAMNWVRQAPGKGLEWVGRIRSKSNNYATYYADSVKDRFTISRDDSQSMLYLQMNNLKTEDTAMYYCVRGKENGNYYAMDFWGQGTSVTVSA
VL: DIVITQAAPSVPVTPGESVSISCRSSKSLLHSNGNTYLYWFLQRPGQSPQLLIYRMSNLASGVPDRFSGSGSGTAFTLRISRVEAEDVGVYYCMQHLEYPFTFGAGTKLELKR
notes: as for B10
Q: How did the EC50 [5] turn out when B16 was run?
A: 0.18 nM

Q: What about the EC50 [6] of the same binder?
A: 0.58 nM

Q: What about the EC50 [3] of the same binder?
A: 0.43 nM
